Measured values taken from paper PMC5382584, “In search of tail-anchored protein machinery in plants: reevaluating the role of arsenite transporters” (Scientific Reports, 2017).
Several values for one entry are separate records, joined by “and”; a condition that tells them apart may be missing. Equal values may be shown once.

Molecular target: the molecule itself
Assay: SEC; preparative size-exclusion chromatography of the purified protein, Superdex-200-16/600GL column; oligomeric state from peak positions

B1: Cr-ArsA2 (C. reinhardtii ArsA2), recombinant, purified (natural protein, UniProt A8IXB8 1-362, looked up)
chain: MAADMPDPTLQNVVDQKELKWIFVGGKGGVGKTTTSSSLAVALAESGTRNRVLIISTDPAHNLSDAFRQKFTKTPTLVNGFTNLFAMEVDPQPDIGEMEQLEWAQDSFLTELAGSIPGIDEAMSFAEVMKQVQTMDYDTIVFDTAPTGHTLRLLNFPTILEKGLSKLVALKGAMGGMMGQVTRMLGGMAGGGEGAADLPDQLLGKVEGMLDVVRKVSAQFKDPLLTTFVAVCIPEFLSLYETERLVQELAKFEIDCRNIVINQIIFPESVGGSRLLDARVRMQQKYLDQFYELYEDFHILQLPLLEEEVRGPEALKAFAVNLLKPYVPAPPTDAAARQAALVSEVAALKKRVAELEAALAKK
notes: ArsA2 of Chlamydomonas reinhardtii, full-length open reading frame, one ATPase domain; pET21 modified with a TEV site between the N-terminal 6His-tag and the polylinker; Seen as dimers and tetramers; also called Dimeric Cr-ArsA2; arsenite transporter ArsA2; source: E. coli BL21 (DE3), purified (Ni-NTA, size-exclusion chromatography)
stoichiometry N: 2 and 4
